This note sets out measurements from paper doi:10.1101/2021.01.28.428001 (bioRxiv, 2021).

For orientation: stoichiometry N means a count of units in the complex or per binding partner.

For series [1], the target named is 2xFLAG-MBP-CYT (cytosolic domain of NOMO1 fused to maltose binding protein) (human). Kind of series: SEC. (SEC sorts molecules by how far they enter the pores of the column.)
Series [2] concerns the molecule itself. Put plainly: SEC-MALS.

As for “2xFLAG-MBP-CYT (cytosolic domain of NOMO1 fused to maltose binding protein) (domain or fragment)”, the stoichiometry N in series [1] was determined as 2.

B1: Nodal Modulator 1 (NOMO1), full length, with C-terminal FLAG tag (natural protein, human, UniProt Q15155 32-1222, looked up)
chain: SEDIVVGCGGFVKSDVEINYSLIEIKLYTKHGTLKYQTDCAPNNGYFMIPLYDKGDFILKIEPPLGWSFEPTTVELHVDGVSDICTKGGDINFVFTGFSVNGKVLSKGQPLGPAGVQVSLRNTGTEAKIQSTVTQPGGKFAFFKVLPGDYEILATHPTWALKEASTTVRVTNSNANAASPLIVAGYNVSGSVRSDGEPMKGVKFLLFSSLVTKEDVLGCNVSPVPGFQPQDESLVYLCYTVSREDGSFSFYSLPSGGYTVIPFYRGERITFDVAPSRLDFTVEHDSLKIEPVFHVMGFSVTGRVLNGPEGDGVPEAVVTLNNQIKVKTKADGSFRLENITTGTYTIHAQKEHLYFETVTIKIAPNTPQLADIIATGFSVCGQISIIRFPDTVKQMNKYKVVLSSQDKDKSLVTVETDAHGSFCFKAKPGTYKVQVMVPEAETRAGLTLKPQTFPLTVTNRPMMDVAFVQFLASVSGKVSCLDTCGDLLVTLQSLSRQGEKRSLQLSGKVNAMTFTFDNVLPGKYKISIMHEDWCWKNKSLEVEVLEDDMSAVEFRQTGYMLRCSLSHAITLEFYQDGNGRENVGIYNLSKGVNRFCLSKPGVYKVTPRSCHRFEQAFYTYDTSSPSILTLTAIRHHVLGTITTDKMMDVTVTIKSSIDSEPALVLGPLKSVQELRREQQLAEIEARRQEREKNGNEEGEERMTKPPVQEMVDELQGPFSYDFSYWARSGEKITVTPSSKELLFYPPSMEAVVSGESCPGKLIEIHGKAGLFLEGQIHPELEGVEIVISEKGASSPLITVFTDDKGAYSVGPLHSDLEYTVTSQKEGYVLTAVEGTIGDFKAYALAGVSFEIKAEDDQPLPGVLLSLSGGLFRSNLLTQDNGILTFSNLSPGQYYFKPMMKEFRFEPSSQMIEVQEGQNLKITITGYRTAYSCYGTVSSLNGEPEQGVAMEAVGQNDCSIYGEDTVTDEEGKFRLRGLLPGCVYHVQLKAEGNDHIERALPHHRVIEVGNNDIDDVNIIVFRQINQFDLSGNVITSSEYLPTLWVKLYKSENLDNPIQTVSLGQSLFFHFPPLLRDGENYVVLLDSTLPRSQYDYILPQVSFTAVGYHKHITLIFNPTRKLPEQDIAQGSYIALPLTLLVLLAGYNHDKLIPLLLQLTSRLQGVRALGQAASDNSGPEDAKRQAKKQKTRRT
As for B1, the “stoichiometry N” value in series [2] turned out to be 2.
